Laboratory results from the RNAGym collection of RNA variant scans (doi:10.7554/elife.80360).

B1: HDV Ribozyme (parent)
chain: GGCCGGCAUGGUCCCAGCCUCCUCGCUGGCGCCGGCUGGGCAACAUUCCGAGGGGACCGUCCCCUCGGUAAUGGCGAAUGGGACCCA

Variants of: B1
Assay: self-cleavage, relative activity (ratio to wild type); higher = more cleavage; co-transcriptional

Row | Variant | self-cleavage
1 | GGCCGGCAUGGUCUCAGCCUCCUCGCUGGCGCCGGCUGGGCAACAUUCCGAGGGGACCGUCACCUCGGUAAUGGCGAAUGGGACCCA [C14U C62A] | 1.06
2 | GGCCGGCAUGGUCUCAGCCUCCUCGCUGGCGCCGGCUGGGCAACAUUCCGAGGGGGCCGUCCCCUCGGUAAUGGCGAAUGGGACCCA [C14U A56G] | 1.16
3 | GGCCGGCAUGGUCCAAGCCUCCUCGCUGGCGCCGGCUGGGCAACAUUCCGAGGGGACCGUCCCCUCGGUCAUGGCGAAUGGGACCCA [C15A A70C] | 0.554
4 | GGCCGGCAUGGUCGCAGCCUCCUCGCUGGCGCCGGCUGGGCAACAUUCCGAGGGGACCGCCCCCUCGGUAAUGGCGAAUGGGACCCA [C14G U60C] | 0.443
5 | GGCCGGCAUGGUCCAAGCCUCCUCGCUGGCGCCGGCUGGGCAACAUUCCGAGGGGACCGUCCCCUCGGUAAUGGCGAAUGGGCCCCA [C15A A83C] | 0.196
6 | GGCCGGCAUGGUCGCAGCCUCCUCGCUGGCGCCGGCUGGGCAACAUUCCGAGGGGACCGUCCCCUCGGAAAUGGCGAAUGGGACCCA [C14G U69A] | 0.767
7 | GGCCGGCAUGGUCUCAGCCUCCUCGCUGGCGCCAGCUGGGCAACAUUCCGAGGGGACCGUCCCCUCGGUAAUGGCGAAUGGGACCCA [C14U G34A] | 0.17
8 | GGCCGGCAUGGUCUCAGCCUCCUCGCUGGCGCCGGCUGGGCAACAUUCCGAGGGGACCGUCCCCUCGGUAAUGGCGAAUGGGAUCCA [C14U C84U] | 0.845
9 | GGCCGGCAUGGUCUCAGCCUCCUCGCUGGCGCCGGCUGGGCAAAAUUCCGAGGGGACCGUCCCCUCGGUAAUGGCGAAUGGGACCCA [C14U C44A] | 1.01
10 | GGCCGGCAUGGUCUCAGCCUCCUCGCUGGCGCCGGCUGGGCAACAUUCCGAGGGGACCGUCCCCUCGGUAAUGGCGACUGGGACCCA [C14U A78C] | 0.237
11 | GGCCGGCAUGGUCCAAGCCUCCUCGCUGGCGCCGGCUGGGCAUCAUUCCGAGGGGACCGUCCCCUCGGUAAUGGCGAAUGGGACCCA [C15A A43U] | 0.212
12 | GGCCGGCAUGGUCUGAGCCUCCUCGCUGGCGCCGGCUGGGCAACAUUCCGAGGGGACCGUCCCCUCGGUAAUGGCGAAUGGGACCCA [C14U C15G] | 0.415
13 | GGCCGGCAUGGUCUCAGCCUCCUCGCUGGCGCCGGCUGGGCAACAUUCCGAGGGGACCGUCCCCUCCGUAAUGGCGAAUGGGACCCA [C14U G67C] | 0.929
14 | GGCCGGCAUGGUCUCAGCCUCCUCGCUGGCGCCGGCUGGGCAACAUUCCGAGGGGACCGUCCCCUCGGUAAUGGCGAAUAGGACCCA [C14U G80A] | 0.486
15 | GGCCGGCAUGGUCCAAGCCUCCUCGCUGGCGCCGGCUGGGCAACUUUCCGAGGGGACCGUCCCCUCGGUAAUGGCGAAUGGGACCCA [C15A A45U] | 0.475
16 | GGCCGGCAUGGUCGCAGCCUCCUCGCUGGCGCCGGCUGGGCAACAUUCCGAGGGGACCGUCCCCUCGGUAAUGGCGAAGGGGACCCA [C14G U79G] | 0

Row | Variant | self-cleavage
17 | GGCCGGCAUGGUCUCAGCCUCCUCGCUGGCGCCGGCUGGGCAACAUUCCGAGGGGACCGUCCCCUCGGGAAUGGCGAAUGGGACCCA [C14U U69G] | 0.755
18 | GGCCGGCAUGGUCUCAGCCUCCUCGCUGGCGCCGGCAGGGCAACAUUCCGAGGGGACCGUCCCCUCGGUAAUGGCGAAUGGGACCCA [C14U U37A] | 0.151
19 | GGCCGGCAUGGUCUCAGCCUCCUCGCUGGCGCCGGCUGGGCAACAUUCCGAGGGAACCGUCCCCUCGGUAAUGGCGAAUGGGACCCA [C14U G55A] | 1.21
20 | GGCCGGCAUGGUCUCAGCCUCCUCGCUGGCGCCGGCUGGGCAACAUUCCGAGGGGACCGUCCCCUCGGUAAUGGCGGAUGGGACCCA [C14U A77G] | 1.31
21 | GGCCGGCAUGGUCUCAGCCUCCUCGCUGGCGCCGGCUGGGCAACAUACCGAGGGGACCGUCCCCUCGGUAAUGGCGAAUGGGACCCA [C14U U47A] | 0.906
22 | GGCCGGCAUGGUCGCAGCCUCCUCGCUGGCGCCGGCUGGGCAACAUUCCGAGGGGACCGUCCCCUCGGUAAUGGCGAAUCGGACCCA [C14G G80C] | 0.0723
23 | GGCCGGCAUGGUCGCAGCCUCCUCGCUGGCGCCGGCUGGGCAACAUUCCGAGGGGACCGUCCCCUCGGUAAUGUCGAAUGGGACCCA [C14G G74U] | 0.128
24 | GGCCGGCAUGGUCGCAGCCUCCUCGCUGGCGCCGGCUGGGCAACAUUCCGAGGGGACCGUCCCCUCGGUAAUGCCGAAUGGGACCCA [C14G G74C] | 0.0639
25 | GGCCGGCAUGGUCUCAGCCUCCUCGCUGUCGCCGGCUGGGCAACAUUCCGAGGGGACCGUCCCCUCGGUAAUGGCGAAUGGGACCCA [C14U G29U] | 0.0739
26 | GGCCGGCAUGGUCUCAGCCUCCACGCUGGCGCCGGCUGGGCAACAUUCCGAGGGGACCGUCCCCUCGGUAAUGGCGAAUGGGACCCA [C14U U23A] | 1.04
27 | GGCCGGCAUGGUCUCAGCCUCCUCGCUGGCGCCGGCUGGGCAACAGUCCGAGGGGACCGUCCCCUCGGUAAUGGCGAAUGGGACCCA [C14U U46G] | 0.875
28 | GGCCGGCAUGGUCGCAGCCUCCUCGCUGGCGCCGGCUGGGCAACAUUCCGAGGGGACCGUCCCCUCGGUAAUUGCGAAUGGGACCCA [C14G G73U] | 0.0755
29 | GGCCGGCAUGGUCUCAGCCUCCUCGCUGGCGCCGGCUGUGCAACAUUCCGAGGGGACCGUCCCCUCGGUAAUGGCGAAUGGGACCCA [C14U G39U] | 0.895
30 | GGCCGGCAUGGUCUCAGACUCCUCGCUGGCGCCGGCUGGGCAACAUUCCGAGGGGACCGUCCCCUCGGUAAUGGCGAAUGGGACCCA [C14U C18A] | 0
31 | GGCCGGCAUGGUCUCAGCCUCCUCGCUGGCGCCGGCUGGGCAACUUUCCGAGGGGACCGUCCCCUCGGUAAUGGCGAAUGGGACCCA [C14U A45U] | 0.892
32 | GGCCGGCAUGGUCUCAGCCUCCUCGCUGGCGCCGGCUGGACAACAUUCCGAGGGGACCGUCCCCUCGGUAAUGGCGAAUGGGACCCA [C14U G40A] | 1.17
